For one substance, stoichiometry N results are on record in article PMC11915506.

The target in test [1] is Peltigera membranacea cyanobiont 210A (Pmc) TnsC (Peltigera membranacea cyanobiont 210A). The experiment in a line: cryo-EM structure.
Test [2] shares this target. Briefly: cryo-EM structure. This is another data set of the same source.

Read-outs that look alike come from different tables or passages of the source.

Consider “Peltigera membranacea cyanobiont 210A (Pmc) TnsC (natural protein)”, for which the stoichiometry N in test [1] and in test [2] was 7 each time.

By stoichiometry N is commonly meant a count of units in the complex or per binding partner.
